Measured values taken from patent publication US12286461B2, “Recombinant fused polypeptide and use thereof” (priority 2019, dated 2025).

What was measured:
[1] = system: SD rats with bleomycin-induced pulmonary fibrosis; assay: Bleomycin-induced pulmonary fibrosis animal model; assay type: in vivo; settings: for content of TGF-β1 in serum, difference from the model group: fused polypeptides 10 mg/kg s.c. once every five days, nintedanib 25 mg/kg intragastric once a day
Procedure: SD rats were anesthetized by intraperitoneal injection of 4% chloral hydrate with a concentration of 1 mL/100 g. After anesthesia, the rats were fixed and their necks were disinfected by using cotton with 75% alcohol. The skin of the rat neck was longitudinally cut with scissors, and the fascia and muscle were longitudinally bluntly torn with tweezers to expose the trachea. A syringe was inserted into the trachea to inject 5 mg/kg bleomycin, while a blank group was injected with an equal amount of normal saline. Then a rat plate was quickly erected and rotated, the rats' breathing was observed, the neck wound was sterilized after rotation and was sewn, and an amoxicillin anti-inflammatory drug was sprinkled on the suture. After the operation, the rats were put back into a dry and clean cage for resting, waiting for awakening. The rats were awakened after about 1-2 hours, and then fed normally. On the 7th day after modeling, modeling group animals randomly fell into a model group, a Nintedanib positive drug group, recombinant fused polypeptide 1, 2, 3 and 4 dosage groups, and a normal control group, and the groups were administered separately for an administration cycle of 15 days. Living situations of rats were observed every day and their weights were weighed. After administration for 15 days, the eyeballs were removed and blood was taken, the rats were dissected, and lungs were taken. The content of TGF-β1 in serum and the content of HYP in lung tissues were detected.

[2] = system: SD rats with CCl4-induced hepatic fibrosis; assay: CCl4-induced hepatic fibrosis animal model; assay type: in vivo; settings: 40% CCl4 i.p. twice a week for 8 weeks, fused polypeptides 6 mg/kg s.c. once every five days
Procedure: Modeling was performed on the rats. Each group other than the blank group was injected with 40% CCl4 intraperitoneally twice a week, the first injection was performed at 3 mL/kg, and then injection was performed at 2 mL/kg. Modeling was performed for 8 weeks to induce hepatic fibrosis. After the intraperitoneal injection of CCl4 for the fourth time, the drugs were administered according to Table 3. After induction for 8 weeks, the administration was stopped. The SD rats were dissected the next day, and blood was taken. The liver tissue was stored in a refrigerator at −80° C. for further use. The expression of HYP in the hepatic tissue of rats was detected. [table]

[3] = system: SD rats with renal fibrosis; assay: Renal fibrosis animal model (ureter ligation); assay type: in vivo; settings: 6 mg/kg s.c. once every five days, after 15 days
Procedure: A renal fibrosis animal model was established. SD rats were anesthetized with 4% chloral hydrate, injected with 1 mL/100 g intraperitoneally, fixed to an operation board, and sterilized in an operation area for further use. […] Muscular layers and abdominal walls were sewed layer by layer, the suture was disinfected with alcohol. After SD rats woke up, the rats were put into a cage for feeding. In the blank group, ureter was not ligated, and other steps were the same.
Then, the animals fell into a blank group, a model group, and recombinant fused polypeptide administration groups, and the administration was started on the second day after the operation, and was performed for 15 days. After administration for 15 days, blood was taken and supernatant was taken to detect the content of TGF-β1 in serum.

[4] = system: mice with myocardial fibrosis; assay: Isoprenaline-induced myocardial fibrosis animal model; assay type: in vivo; settings: BALB/c mice, isoprenaline 5 mg/kg s.c. daily for 7 days, 12 mg/kg s.c. (Table 5), after the 8th day, FIG. 5
Procedure: In the model group, the experimental mice were injected with isoprenaline (ISO) (5 mg/kg) subcutaneously on the back of the mice every day for 7 consecutive days, and the mice were injected with normal saline subcutaneously (200 μL/mouse) every day. In the blank group, normal saline was injected subcutaneously (200 μL/mouse) every day. […] After the 8th day, blood was taken and was centrifuged, the supernatant was taken, and the content of TGF-β1 in serum was detected.

[5] = system: mice with bleomycin-induced skin fibrosis; assay: Bleomycin-induced skin fibrosis model; assay type: in vivo, C57/BL black mice; settings: C57/BL mice, bleomycin 10 μg/mL s.c. daily for 28 days, 10 mg/kg s.c. once every five days, 6 times, FIG. 6
Procedure: Bleomycin (10 μg/mL) was injected subcutaneously every day for 28 days to form skin fibrosis. During the modeling period, the administration groups were given drugs for treatment. After modeling, the mice were killed on the next day, and the skin tissue of the mouse back was taken to detect the content of HYP in the skin tissue. [table]

Streptococcus pneumoniae = assay: Mouse pneumonia model, bacterial pneumonia; assay type: in vivo; settings: BALB/C mouse pneumonia model, nasal drip; average ± standard deviation
Description: (§1) A mouse pneumonia model was successfully established by using a nasal drip method. BALB/C mice with a body weight of 18-24 g were selected, and then anesthetized with ether on day 0, day 1 and day 2, respectively, prepared Streptococcus pneumoniae bacteria solution, adenovirus concentrated solution, Mycoplasma pneumoniae, Chlamydia pneumoniae, protozoa and pneumonia fungi were slowly dropped into the nasal cavity of the mice, so that the bacteria solutions entered the trachea and bronchi, and the bacteria solutions were prevented from flowing into the esophagus during the operation to avoid inactivation of the bacteria solutions, so that the mouse pneumonia model was established. After the model was successfully established, the recombinant fused polypeptides according to the present invention were administered.

adenovirus = assay: Mouse pneumonia model, viral pneumonia; assay type: in vivo; settings: BALB/C mouse pneumonia model, nasal drip; average ± standard deviation
Description: as §1

Mycoplasma pneumoniae = assay: Mouse pneumonia model, mycoplasma pneumonia; assay type: in vivo; settings: BALB/C mouse pneumonia model, nasal drip; average ± standard deviation
Description: as §1

Chlamydia pneumoniae = assay: Mouse pneumonia model, chlamydia pneumonia; assay type: in vivo; settings: BALB/C mouse pneumonia model, nasal drip; average ± standard deviation
Description: as §1

protozoa = assay: Mouse pneumonia model, protozoal pneumonia; assay type: in vivo; settings: BALB/C mouse pneumonia model, nasal drip; average ± standard deviation
Description: as §1

pneumonia fungi = assay: Mouse pneumonia model, fungal pneumonia; assay type: in vivo; settings: BALB/C mouse pneumonia model, nasal drip; average ± standard deviation
Description: as §1

pulmonary infections = assay: Mouse pneumonia model, pneumonia caused by pulmonary infections; assay type: in vivo, BALB/C mice; settings: BALB/C mouse pneumonia model, nasal drip, average ± standard deviation
Description: as §1

[6] = listed as recombinant fused polypeptide IV

B1: Acetyl-SDKPGGGGTSLDASIIWAMMQNGGGGLSKLAEAAAKEAAAKEAAAKEAAAKKPRCWRGEGGGGIVRRADRAAVPGGGGRGD (protein)
chain: SDKPGGGGTSLDASIIWAMMQNGGGGLSKLAEAAAKEAAAKEAAAKEAAAKKPRCWRGEGGGGIVRRADRAAVPGGGGRGD
modifications: N-acetyl
notes: Recombinant fused polypeptide Y-linker2-X expressed in 293 cells
[1]; bleomycin 5 mg/kg intratracheal, dosage 10 mg/kg (Table 2), administration cycle 15 days from day 7 after modeling
  Survival rate (%): 92.9%
[1]; bleomycin pulmonary fibrosis, 10 mg/kg s.c. once every five days, after 15 days, FIG. 1
  hydroxyproline (HYP) content in lung tissue: can lower the hydroxyproline content
[1]; bleomycin pulmonary fibrosis, after 15 days, FIG. 2, listed as recombinant fused polypeptide 4
  content of TGF-β1 in serum, difference from the model group: significantly different from the model group (*P<0.05)
[1]; bleomycin pulmonary fibrosis, after 15 days, FIG. 2, listed as recombinant fused polypeptide IV
  content of TGF-β1 in serum, difference from the model group: can lower the TGF-β1 content
[2]; FIG. 3, listed as Recombinant fused polypeptide 4
  content of HYP in liver tissue, difference from the model group: highly significantly different from the model group (***P<0.001)
[2]; FIG. 3, listed as recombinant fused polypeptide IV
  content of HYP in liver tissue, difference from the model group: can lower the HYP content
[3]; FIG. 4, listed as recombinant fused polypeptide 4, 6 mg/kg
  content of TGF-β1 in serum, difference from the model group: highly significantly different from the model group (***P<0.001)
[3]; FIG. 4, listed as recombinant fused polypeptide IV, 6 mg/kg
  content of TGF-β1 in serum, difference from the model group: can lower the TGF-β1 content
[4]; listed as recombinant fused polypeptide 4
  content of TGF-β1 in serum, difference from the model group: significantly different from the model group (**P<0.01)
[4]; [6]
  content of TGF-β1 in serum, difference from the model group: can lower the TGF-β1 content
[5]; listed as recombinant fused polypeptide 4, 10 mg/kg
  content of HYP in skin tissue, difference from the model group: highly significantly different from the model group (***P<0.001)
[5]; listed as recombinant fused polypeptide IV, 10 mg/kg
  content of HYP in skin tissue, difference from the model group: can lower the hydroxyproline content
Streptococcus pneumoniae
  Inhibitory effect, Bacterial pneumonia: 48.61 ± 6.54
adenovirus
  Inhibitory effect, Viral pneumonia: 78.12 ± 8.27
Mycoplasma pneumoniae
  Inhibitory effect, Mycoplasma pneumonia: 47.30 ± 5.30
Chlamydia pneumoniae
  Inhibitory effect, Chlamydia pneumonia: 55.26 ± 6.12
protozoa
  Inhibitory effect, Protozoal pneumonia: 63.45 ± 4.68
Pneumonia fungi
  Inhibitory effect, Fungal pneumonia: 54.12 ± 5.12
Pulmonary infections
  Inhibitory effect, Pneumonia caused by pulmonary infections: 56.93 ± 5.28
Pulmonary infections; [6]
  Inhibitory effect, Pneumonia caused by pulmonary infections: inhibitory effect
